Measurements reported in paper PMC10786891, “Massively parallel profiling of RNA-targeting CRISPR-Cas13d”.

Molecular target: T1, EsCas13d, nuclease-dead (Eubacterium siraeum, UniProt B0MS50, R295A;H300A;R849A;H854A)
T1 sequence: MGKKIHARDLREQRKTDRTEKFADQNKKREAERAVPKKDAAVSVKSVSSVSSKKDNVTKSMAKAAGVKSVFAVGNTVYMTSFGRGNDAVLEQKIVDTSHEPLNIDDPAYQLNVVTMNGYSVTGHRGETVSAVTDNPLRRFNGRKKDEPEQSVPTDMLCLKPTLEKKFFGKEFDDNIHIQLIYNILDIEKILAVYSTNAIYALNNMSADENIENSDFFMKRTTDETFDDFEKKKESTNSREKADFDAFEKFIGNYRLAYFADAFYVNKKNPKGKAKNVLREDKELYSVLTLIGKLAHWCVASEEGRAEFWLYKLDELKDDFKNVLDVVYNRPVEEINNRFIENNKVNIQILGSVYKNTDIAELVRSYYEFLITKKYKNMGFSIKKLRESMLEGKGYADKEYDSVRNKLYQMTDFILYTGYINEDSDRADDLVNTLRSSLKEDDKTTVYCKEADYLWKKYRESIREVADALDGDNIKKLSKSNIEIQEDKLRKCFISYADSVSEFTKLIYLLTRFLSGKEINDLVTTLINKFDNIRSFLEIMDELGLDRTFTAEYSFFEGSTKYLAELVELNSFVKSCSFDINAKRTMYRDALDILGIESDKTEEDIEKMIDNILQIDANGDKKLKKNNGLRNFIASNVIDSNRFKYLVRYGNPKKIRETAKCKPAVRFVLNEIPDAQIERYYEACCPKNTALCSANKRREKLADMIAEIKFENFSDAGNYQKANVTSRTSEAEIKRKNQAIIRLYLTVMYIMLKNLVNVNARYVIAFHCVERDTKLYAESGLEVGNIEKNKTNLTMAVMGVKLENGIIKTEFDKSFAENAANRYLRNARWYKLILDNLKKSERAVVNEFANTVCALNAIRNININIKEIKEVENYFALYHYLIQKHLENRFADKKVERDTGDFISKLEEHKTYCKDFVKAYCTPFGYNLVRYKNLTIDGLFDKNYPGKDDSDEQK
Assay: crRNA (strand 1, pre-loaded); Mg2+; 40 mM Tris-HCl pH 7.5, 150 mM NaCl, 6 mM MgCl2, 1 mM DTT, 0.1% Tween-20, 0.2 mg/ml BSA; 25 C; 10 min per concentration, then washed
Settings: tags: His6-TwinStrep-SUMO cleaved; N-terminal SNAP kept (SNAP-Surface 488); label: 3' end held by stalled T7 RNA polymerase

Row | Binder | Kd
1 | target 1 insG 3' of 9,insU 3' of 9 (mixed) RNA 1: CACCCGUGCAAAAAUGCAGGGGUCUAAAACUGAGCGGAUAACCUCUCUAUGG RNA 2: GGGAAUGGAUCCACAUCUACGAAUUCGUACCAUAGAGAGGUUAGUUCCGCUCACCGAGAUCGGAAGAGCACACGU | 17.9 ± 0.9 nM
2 | target 1 MT 5'PFS AAA 3'PFS CGU (mixed) RNA 1: CACCCGUGCAAAAAUGCAGGGGUCUAAAACUGAGCGGAUAACCUCUCUAUGG RNA 2: GGGAAUGGAUCCACAUCUACGAAUUCAAACCAUAGAGAGGUUAUCCGCUCACGUAGAUCGGAAGAGCACACGU | 35 ± 16 nM
3 | target 1 MT 5'PFS CUC 3'PFS CAU (mixed) RNA 1: CACCCGUGCAAAAAUGCAGGGGUCUAAAACUGAGCGGAUAACCUCUCUAUGG RNA 2: GGGAAUGGAUCCACAUCUACGAAUUCCUCCCAUAGAGAGGUUAUCCGCUCACAUAGAUCGGAAGAGCACACGU | ~55 nM
4 | target 1 insG 3' of 14,insA 3' of 7 (mixed) RNA 1: CACCCGUGCAAAAAUGCAGGGGUCUAAAACUGAGCGGAUAACCUCUCUAUGG RNA 2: GGGAAUGGAUCCACAUCUACGAAUUCGUACCAUAGAGAGGGUUAUCACGCUCACCGAGAUCGGAAGAGCACACGU | 6.2 ± 0.5 nM
5 | target 1 MT 5'PFS AAC 3'PFS AGA (mixed) RNA 1: CACCCGUGCAAAAAUGCAGGGGUCUAAAACUGAGCGGAUAACCUCUCUAUGG RNA 2: GGGAAUGGAUCCACAUCUACGAAUUCAACCCAUAGAGAGGUUAUCCGCUCAAGAAGAUCGGAAGAGCACACGU | ~27 nM
6 | target 1 MT 5'PFS UGU 3'PFS CAU (mixed) RNA 1: CACCCGUGCAAAAAUGCAGGGGUCUAAAACUGAGCGGAUAACCUCUCUAUGG RNA 2: GGGAAUGGAUCCACAUCUACGAAUUCUGUCCAUAGAGAGGUUAUCCGCUCACAUAGAUCGGAAGAGCACACGU | ~52 nM
7 | target 1 MT 5'PFS AAA 3'PFS CGA (mixed) RNA 1: CACCCGUGCAAAAAUGCAGGGGUCUAAAACUGAGCGGAUAACCUCUCUAUGG RNA 2: GGGAAUGGAUCCACAUCUACGAAUUCAAACCAUAGAGAGGUUAUCCGCUCACGAAGAUCGGAAGAGCACACGU | 30 ± 14.5 nM
8 | target 1 MT 5'PFS UAA 3'PFS UUC (mixed) RNA 1: CACCCGUGCAAAAAUGCAGGGGUCUAAAACUGAGCGGAUAACCUCUCUAUGG RNA 2: GGGAAUGGAUCCACAUCUACGAAUUCUAACCAUAGAGAGGUUAUCCGCUCAUUCAGAUCGGAAGAGCACACGU | 22.9 ± 4.25 nM
9 | target 1 MT 5'PFS GUU 3'PFS AGA (mixed) RNA 1: CACCCGUGCAAAAAUGCAGGGGUCUAAAACUGAGCGGAUAACCUCUCUAUGG RNA 2: GGGAAUGGAUCCACAUCUACGAAUUCGUUCCAUAGAGAGGUUAUCCGCUCAAGAAGAUCGGAAGAGCACACGU | 27.4 ± 5.25 nM
10 | target 1 MT 5'PFS UGU 3'PFS UAA (mixed) RNA 1: CACCCGUGCAAAAAUGCAGGGGUCUAAAACUGAGCGGAUAACCUCUCUAUGG RNA 2: GGGAAUGGAUCCACAUCUACGAAUUCUGUCCAUAGAGAGGUUAUCCGCUCAUAAAGAUCGGAAGAGCACACGU | 56 ± 17 nM
11 | target 1 MT 5'PFS GGA 3'PFS AAG (mixed) RNA 1: CACCCGUGCAAAAAUGCAGGGGUCUAAAACUGAGCGGAUAACCUCUCUAUGG RNA 2: GGGAAUGGAUCCACAUCUACGAAUUCGGACCAUAGAGAGGUUAUCCGCUCAAAGAGAUCGGAAGAGCACACGU | 24.1 ± 3.95 nM
12 | target 1 MT 5'PFS CCC 3'PFS UGC (mixed) RNA 1: CACCCGUGCAAAAAUGCAGGGGUCUAAAACUGAGCGGAUAACCUCUCUAUGG RNA 2: GGGAAUGGAUCCACAUCUACGAAUUCCCCCCAUAGAGAGGUUAUCCGCUCAUGCAGAUCGGAAGAGCACACGU | 8.55 ± 3.25 nM
13 | target 1 MT 5'PFS GUU 3'PFS AGC (mixed) RNA 1: CACCCGUGCAAAAAUGCAGGGGUCUAAAACUGAGCGGAUAACCUCUCUAUGG RNA 2: GGGAAUGGAUCCACAUCUACGAAUUCGUUCCAUAGAGAGGUUAUCCGCUCAAGCAGAUCGGAAGAGCACACGU | 15.6 ± 3.35 nM
14 | target 1 MT 5'PFS GGG 3'PFS GUG (mixed) RNA 1: CACCCGUGCAAAAAUGCAGGGGUCUAAAACUGAGCGGAUAACCUCUCUAUGG RNA 2: GGGAAUGGAUCCACAUCUACGAAUUCGGGCCAUAGAGAGGUUAUCCGCUCAGUGAGAUCGGAAGAGCACACGU | 7.25 ± 0.95 nM
15 | target 1 MT 5'PFS UAA 3'PFS UUU (mixed) RNA 1: CACCCGUGCAAAAAUGCAGGGGUCUAAAACUGAGCGGAUAACCUCUCUAUGG RNA 2: GGGAAUGGAUCCACAUCUACGAAUUCUAACCAUAGAGAGGUUAUCCGCUCAUUUAGAUCGGAAGAGCACACGU | 49 ± 14 nM
16 | target 1 MT 5'PFS GUU 3'PFS GGG (mixed) RNA 1: CACCCGUGCAAAAAUGCAGGGGUCUAAAACUGAGCGGAUAACCUCUCUAUGG RNA 2: GGGAAUGGAUCCACAUCUACGAAUUCGUUCCAUAGAGAGGUUAUCCGCUCAGGGAGAUCGGAAGAGCACACGU | 81 ± 29 nM
17 | target 1 C2U,U11G (mixed) RNA 1: CACCCGUGCAAAAAUGCAGGGGUCUAAAACUGAGCGGAUAACCUCUCUAUGG RNA 2: GGGAAUGGAUCCACAUCUACGAAUUCGUACCAUAGAGAGGGUAUCCGCUUACCGAGAUCGGAAGAGCACACGU | 18.4 ± 1 nM
18 | target 1 MT 5'PFS UAA 3'PFS UUA (mixed) RNA 1: CACCCGUGCAAAAAUGCAGGGGUCUAAAACUGAGCGGAUAACCUCUCUAUGG RNA 2: GGGAAUGGAUCCACAUCUACGAAUUCUAACCAUAGAGAGGUUAUCCGCUCAUUAAGAUCGGAAGAGCACACGU | 28.5 ± 6.5 nM
19 | target 1 MT 5'PFS CCG 3'PFS AAA (mixed) RNA 1: CACCCGUGCAAAAAUGCAGGGGUCUAAAACUGAGCGGAUAACCUCUCUAUGG RNA 2: GGGAAUGGAUCCACAUCUACGAAUUCCCGCCAUAGAGAGGUUAUCCGCUCAAAAAGAUCGGAAGAGCACACGU | 27.5 ± 8 nM
20 | target 1 MT 5'PFS UAA 3'PFS UUG (mixed) RNA 1: CACCCGUGCAAAAAUGCAGGGGUCUAAAACUGAGCGGAUAACCUCUCUAUGG RNA 2: GGGAAUGGAUCCACAUCUACGAAUUCUAACCAUAGAGAGGUUAUCCGCUCAUUGAGAUCGGAAGAGCACACGU | 16.8 ± 2.95 nM
21 | target 1 MT 5'PFS GUU 3'PFS AGU (mixed) RNA 1: CACCCGUGCAAAAAUGCAGGGGUCUAAAACUGAGCGGAUAACCUCUCUAUGG RNA 2: GGGAAUGGAUCCACAUCUACGAAUUCGUUCCAUAGAGAGGUUAUCCGCUCAAGUAGAUCGGAAGAGCACACGU | 21.7 ± 3.85 nM
22 | target 1 MT 5'PFS CAU 3'PFS UUA (mixed) RNA 1: CACCCGUGCAAAAAUGCAGGGGUCUAAAACUGAGCGGAUAACCUCUCUAUGG RNA 2: GGGAAUGGAUCCACAUCUACGAAUUCCAUCCAUAGAGAGGUUAUCCGCUCAUUAAGAUCGGAAGAGCACACGU | ~70 nM
23 | target 1 MT 5'PFS UCA 3'PFS AUC (mixed) RNA 1: CACCCGUGCAAAAAUGCAGGGGUCUAAAACUGAGCGGAUAACCUCUCUAUGG RNA 2: GGGAAUGGAUCCACAUCUACGAAUUCUCACCAUAGAGAGGUUAUCCGCUCAAUCAGAUCGGAAGAGCACACGU | ~11 nM
24 | target 1 MT 5'PFS GGA 3'PFS AAA (mixed) RNA 1: CACCCGUGCAAAAAUGCAGGGGUCUAAAACUGAGCGGAUAACCUCUCUAUGG RNA 2: GGGAAUGGAUCCACAUCUACGAAUUCGGACCAUAGAGAGGUUAUCCGCUCAAAAAGAUCGGAAGAGCACACGU | 41 ± 10 nM
25 | target 1 MT 5'PFS GGA 3'PFS AAC (mixed) RNA 1: CACCCGUGCAAAAAUGCAGGGGUCUAAAACUGAGCGGAUAACCUCUCUAUGG RNA 2: GGGAAUGGAUCCACAUCUACGAAUUCGGACCAUAGAGAGGUUAUCCGCUCAAACAGAUCGGAAGAGCACACGU | 24.5 ± 5 nM
26 | target 1 MT 5'PFS UCG 3'PFS AUA (mixed) RNA 1: CACCCGUGCAAAAAUGCAGGGGUCUAAAACUGAGCGGAUAACCUCUCUAUGG RNA 2: GGGAAUGGAUCCACAUCUACGAAUUCUCGCCAUAGAGAGGUUAUCCGCUCAAUAAGAUCGGAAGAGCACACGU | 37.5 ± 10.5 nM
27 | target 1 MT 5'PFS AAC 3'PFS AGG (mixed) RNA 1: CACCCGUGCAAAAAUGCAGGGGUCUAAAACUGAGCGGAUAACCUCUCUAUGG RNA 2: GGGAAUGGAUCCACAUCUACGAAUUCAACCCAUAGAGAGGUUAUCCGCUCAAGGAGAUCGGAAGAGCACACGU | 59 ± 19 nM
28 | target 1 MT 5'PFS GGA 3'PFS AAU (mixed) RNA 1: CACCCGUGCAAAAAUGCAGGGGUCUAAAACUGAGCGGAUAACCUCUCUAUGG RNA 2: GGGAAUGGAUCCACAUCUACGAAUUCGGACCAUAGAGAGGUUAUCCGCUCAAAUAGAUCGGAAGAGCACACGU | 21 ± 5.5 nM
